# Laboratory results as given in the RNAGym collection of RNA variant scans (doi:10.7554/elife.80360).
# B1: Twister Ribozyme (parent)
# chain: AACACUGCCAAUGCCGGUCCCAAGCCCGGAUAAAAGUGGAGGGGGCGG
# Variants of: B1
# Test: self-cleavage, relative activity (ratio to wild type); higher = more cleavage; co-transcriptional
row,Variant,self-cleavage
1,C25U G36U,0.123
2,C26A U31C,0.7
3,C26A U31A,0.638
4,C25U U31C,0.61
5,C27G G36U,0.0875
6,C27G G36A,0.0994
7,C26A C27G,0.0974
8,C26A C27U,0.0741
9,C27A U31C,0.495
10,G24U G43U,0.0757
11,G24U G43A,0.0702
12,C26U G28A,0.106
13,C26U G28C,0.134
14,C26U G28U,0.142
15,C27A A30C,0.12
16,C27A A30U,0.707
17,C26A G39U,0.116
18,C26A G39A,0.107
19,C27U A34G,0.483
20,C25U A34G,0.487
21,C25U A34C,0.0649
22,C27U G41A,0.347
23,C27U G41C,0.176
24,C27U G41U,0.345

row,Variant,self-cleavage
1,C27A G48C,0.563
2,C27U G44A,0.84
3,C27U G44C,0.777
4,C25A C26A,0.0988
5,C25A C26U,0.0948
6,C25G A32C,0.261
7,C25G A32G,0.216
8,C27G G29U,0.0759
9,G24U G47C,0.131
10,C27A G38U,0.33
11,C27A G38A,0.241
12,C27A G38C,0.573
13,C26U A35C,0.446
14,C26U A35U,0.553
15,C26U A35G,0.169
16,G24U G36U,0.0805
17,C27U G48A,0.633
18,C27U G48U,0.942
19,C26U G45U,0.145
20,G24U G28U,0.0893
21,C25U A32U,0.799
22,C25G C46U,0.286
23,C27U G43U,0.219
24,C27U G43A,0.211

row,Variant,self-cleavage
1,C27A G47A,0.238
2,C27A G47U,0.186
3,C27G G28U,0.0803
4,C27G G28C,0.216
5,C27G G28A,0.0984
6,C27A G43A,0.148
7,C27A G43C,0.136
8,G24U G44A,0.127
9,G24U G44C,0.0809
10,G24U G44U,0.097
11,C25G A35G,0.0857
12,C25G A35C,0.182
13,C27G A33G,0.139
14,C25U C26A,0.0893
15,C26G G28U,0.0926
16,C26G G28C,0.142
17,C26U A34G,0.147
18,C25U,0.881
19,C25G,0.458
20,C25A,0.144
21,C25U A30U,0.932
22,C25U A30G,0.911
23,C27U A33G,0.702
24,C27U A33U,0.709

row,Variant,self-cleavage
1,C26A G47C,0.2
2,C26A G47A,0.142
3,C26G A33C,0.129
4,G24U G39C,0.0634
5,G24U G39A,0.0948
6,C26A A32U,0.405
7,C26A A32C,0.575
8,C25G G38U,0.131
9,C25G G38A,0.0823
10,C27G A30G,0.0912
11,C27G A30C,0.105
12,C26U U37C,0.116
13,C26U U37G,0.118
14,C25G G47U,0.155
15,C25G G47C,0.142
16,C25G G47A,0.153
17,C26G G47U,0.116
18,C26G G47A,0.177
19,C26G G47C,0.145
20,C25U A40C,0.109
21,C25U A40U,0.0985
22,C27U G45U,0.638
23,C25G C26A,0.0961
24,C25G G36U,0.103

row,Variant,self-cleavage
1,C27G G42A,0.0529
2,C27G G42C,0.082
3,G24U G29C,0.0648
4,G24U G29U,0.103
5,C27U C46A,0.825
6,C27A G44A,0.648
7,C27A G44C,0.298
8,C27A G44U,0.41
9,C26G U31G,0.348
10,C25A A40U,0.0741
11,C27A A32G,0.483
12,C27A A32U,0.446
13,C26U A30C,0.0974
14,C26U A30G,0.419
15,C27A U37G,0.0964
16,C27A U37A,0.138
17,C27A U37C,0.136
18,C27G G43U,0.0926
19,C27G G43C,0.0881
20,C27G G43A,0.0971
21,C27G C46A,0.0878
22,C27G C46U,0.105
23,C25A A32C,0.0985
24,C25G C27A,0.105

row,Variant,self-cleavage
1,C25U G39U,0.158
2,C25U G39C,0.117
3,C25U G43U,0.182
4,C26G C27A,0.107
5,C26G C27G,0.106
6,C25U A33U,0.822
7,C25U A33G,0.853
8,C25U G41C,0.147
9,C27U A35C,0.641
10,G24U G41U,0.0892
11,C25A G44U,0.107
12,C25A G44C,0.111
13,C25A G44A,0.169
14,C26A G43A,0.124
15,C26A G43U,0.11
16,C26A G43C,0.111
17,C26A C46G,0.358
18,C26A C46U,0.624
19,C26G G38C,0.202
20,C27U G28U,0.501
21,C27U G28C,0.568
22,C25G G39A,0.101
23,C26A G36C,0.105
24,C26A G36U,0.091

row,Variant,self-cleavage
1,C25G G44A,0.514
2,C27U G38U,0.756
3,C27U G38A,0.72
4,C26U G39A,0.118
5,C25G G42C,0.18
6,C25G G42A,0.118
7,C26A G45U,0.136
8,C26A G45A,0.258
9,C25U G48A,0.559
10,C25U G48C,0.881
11,C26A A33G,0.257
12,C26A A33C,0.359
13,C26A G44C,0.212
14,C26A G42A,0.132
15,C26A G42C,0.131
16,C26U C27G,0.0958
17,C26U C27A,0.102
18,C26U C27U,0.115
19,C26U,0.601
20,C26A,0.706
21,C26G,0.449
22,C25G A34C,0.115
23,C25G A34U,0.158
